In patent US20250277036A1 (POLYGON THERAPEUTICS, published 2025):
Numbering of substitutions follows the chain as printed.

B1: MP08-R3-F08 in the rat IgG2b kappa format (antibody, V domains shown)
VH: EVQLVESGGSLVKPGGSLRLSCAASGFTFSNNAMNWVRQAPGKGLEWISDISGSSRYIGYADFVKGRFTISRDNAKNSLYLQMNSLRAEDTAVYYCVRSSNYYDYNADAMDVWGRGTLVTVSS
VL: QSVLTQPASVSGSPGQSITISCAGTSSDVGGNSYVSWYQQHPGKAPKLMIYSDSSRPSGVSNRFSGSKSGNTASLTISGLQAEDEADYYCSSYTQYSTRVFGGGTKLAVL
notes: Same VH and VL cloned into a rat IgG2b kappa format; also called MP08-R3-F08 rat IgG2b
B2: MP08-R3-C11 in the rat IgG2b kappa format (antibody, V domains shown)
VH: EVQLVESGGSLVKPGGSLRLSCAASGFTFSNYDMNWVRQAPGKGLEWISDISGSSSYIDYADFVKGRFTISRDNAKNSLYLQMNSLRAEDTAVYYCVRSSYYSGSGMDVWGRGTLVTVSS
VL: B1 VL with N32G, Y34S, S52Q, S55Y, Q95Y
notes: Same VH and VL cloned into a rat IgG2b kappa format; also called MP08-R3-C11 rat IgG2b
B3: MP09-R3-D03 in the rat IgG2b kappa format (antibody, V domains shown)
VH: EVQLVESGGSLVKPGGSLRLSCAASGFTFSNYYMNWVRQAPGKGLEWISSISGSSRYIYYADFVKGRFTISRDNAKNSLYLQMNSLRAEDTAVYYCVRSSGSYFGNAMDVWGRGTLVTVSS
VL: B1 VL with N32Y, S33Y, Y34S, S52Y, Y93D, Q95S
notes: Same VH and VL cloned into a rat IgG2b kappa format; also called MP09-R3-D03 rat IgG2b; MP09-R3-D3
B4: MP08-R3-F08 in the human IgG1 lambda format (antibody, V domains shown)
VH: B1 VH
VL: QSVLTQPASVSGSPGQSITISCAGTSSDVGGNSYVSWYQQHPGKAPKLMIYSDSSRPSGVSNRFSGSKSGNTASLTISGLQAEDEADYYCSSYTQYSTRVFGGGTKLAVLG
notes: Whole human IgG1 lambda made in ExpiCHO cells; also called hMP08-R3-F08; MP08-R3-F08 human IgG1 clone; copies: 2 + 2
B5: MP09-R3-D03 in the human IgG1 lambda format (antibody, V domains shown)
VH: B3 VH
VL: B1 VL with N32Y, S33Y, Y34S, S52Y, Y93D, Q95S
notes: Whole human IgG1 lambda made in ExpiCHO cells; also called hMP09-R3-D03; MP09-R3-D03 human IgG1 clone
B6: MP08-R3-C11 in the human IgG1 lambda format (antibody, V domains shown)
VH: B2 VH
VL: B1 VL with N32G, Y34S, S52Q, S55Y, Q95Y
notes: Whole human IgG1 lambda made in ExpiCHO cells; also called hMP08-R3-C11; MP08-R3-C11 human IgG1 clone

These binders were tested against T1, Biotinylated recombinant mouse CD8α (Sino biological #50389-M08H-B) (mouse, UniProt P01731 28-196, biotinylated (site not stated)) (assay: dose-response ELISA, rat IgG2b format).
T1 sequence (P01731 28-196 limits assumed, stated change not applied): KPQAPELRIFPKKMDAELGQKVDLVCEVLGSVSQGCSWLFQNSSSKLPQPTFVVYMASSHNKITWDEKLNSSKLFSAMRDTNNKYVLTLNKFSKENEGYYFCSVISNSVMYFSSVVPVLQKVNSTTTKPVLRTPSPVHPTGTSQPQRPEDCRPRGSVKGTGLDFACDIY
Procedure: (§1) […] of streptavidin were coated on Nunc Maxisorp 96-well plates (ThermoFisher #442404) at 100 μL/well and incubated 1 hour at room temperature. Biotinylated human CD8α (Fisher Scientific #17196181) and mouse CD8α (Sino biological #50389-M08H-B) were added at 0.5 μg/mL in 100 μL/well and incubated overnight at 4° C. Human CD4 (Sino biological #10400-H08H) was coated passively at 1 μg/mL in 100 μL/well and incubated overnight at 4° C. Plates were then blocked using 200 μL of PBS containing 4% skimmed milk for 1 hour at room temperature.
(§2) The three antibody clones (in both human IgG1 lambda and rat IgG2b kappa formats) were diluted in milk-PBS and tested at different concentrations (75, 25, 8.3, 2.8, 0.93, 0.31, 0.103, 0.034, 0.011, 0.0038, 0.0013 and 0.00042 μg/mL). 100 μL/well were incubated 1 hour at room temperature.
(§3) TMB ((3,3′,5,5′ tetramethylbenzidine) Thermo Scientific #12617087) was added for a 3-minute incubation. Reaction was stopped with H₂SO₄ and absorbance at 450 nm was read on a microplate reader (Pherastar FS, BMG Labtech).
B1: no binding (tested: 75 µg/mL (highest concentration tested)).
B2: no binding (tested: 75 µg/mL (highest concentration tested)).
B3: no binding (tested: 75 µg/mL (highest concentration tested)).

The binders below were run against T2, Biotinylated recombinant human CD8α (Fisher Scientific #17196181) (human, UniProt P01732 22-182, biotinylated (site not stated)) (assay: dose-response ELISA on biotinylated human CD8α captured on streptavidin, human IgG1 format).
T2 construct: Bought protein; also called hCD8α; recombinant human CD8α protein
T2 sequence (P01732 22-182 limits assumed): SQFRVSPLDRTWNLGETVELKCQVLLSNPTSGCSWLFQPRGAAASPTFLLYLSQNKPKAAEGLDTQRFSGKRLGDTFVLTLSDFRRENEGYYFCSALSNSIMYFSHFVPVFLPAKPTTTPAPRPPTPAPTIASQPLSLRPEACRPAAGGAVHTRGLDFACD
Procedure: as §1, §2, §3
B4 was tested, and the EC50 was 0.28 nM.
Work on B5 yielded an EC50 of 2 nM.
In the case of B6, the EC50 is reported as 2.4 nM.

What follows are binders tested against T3, Recombinant human CD4 (Sino biological #10400-H08H) (human, UniProt P01730 26-390) (assay: dose-response ELISA on coated human CD4, human IgG1 format).
Procedure: as §1, §2, §3
B4: no binding (tested: 75 µg/mL (highest concentration tested)).
B5: no binding (tested: 75 µg/mL (highest concentration tested)).
B6: no binding (tested: 75 µg/mL (highest concentration tested)).

These binders were tested against T2, Biotinylated recombinant human CD8α … (assay: dose-response ELISA on biotinylated human CD8α captured on streptavidin, rat IgG2b format).
Procedure: as §1, §2, §3
B1 was tested, and the EC50 was 0.2 nM.
With B2 the EC50 was 0.48 nM.
B3 gave an EC50 of 0.99 nM.

What follows are binders tested against T3, Recombinant human CD4 (Sino biological …) (assay: dose-response ELISA on coated human CD4, rat IgG2b format).
Procedure: as §1, §2, §3
B1: no binding (tested: 75 µg/mL (highest concentration tested)).
B2: no binding (tested: 75 µg/mL (highest concentration tested)).
B3: no binding (tested: 75 µg/mL (highest concentration tested)).

The binders below were run against T1, Biotinylated recombinant mouse CD8α … (assay: dose-response ELISA, human IgG1 format).
Procedure: as §1, §2, §3
B4: no binding (tested: 75 µg/mL (highest concentration tested)).
B5: no binding (tested: 75 µg/mL (highest concentration tested)).
B6: no binding (tested: 75 µg/mL (highest concentration tested)).
